B1: EL188-PK: EL188 fusion variant with one peptide stretch, PK (protein)
chain: MNFRTKNGYRDLQALVKELGLYTGQIDGVWGKGTSSSTETLLRGYAEVVGKNTGGIGLPTTSDASGYNVITALQRNLAFLGLYSLTVDGIWGNGTLSGDKAFEVYKERYRTPTYDIAWSGKVSPAFTAKVKDWCGVHVPNHRAPHWLMACMAFETGQTFSPSIKNAAGSEAYGLIQFMSPAANDLNVPLSVIRSMDQLTQLDLVFKYFEMWMKRGKRYTQLEDFYLTIFHPASVGKKADEVLFLQGSKAYLQNKGFDVDKDGKITLGEISSTLYTTYYKGLLPENRHVISYKRKKRKKRK
B2: KZ144-PK: KZ144 fusion variant with one peptide stretch, PK (protein)
chain: MKVLRKGDRGDEVCQLQTLLNLCGYDVGKPDGIFGNNTFNQVVKFQKDNCLDSDGIVGKNTWAELFSKYSPPIPYKTIPMPTANKSRAAATPVMNAVENATGVRSQLLLTFASIESAFDYEIKAKTSSATGWFQFLTGTWKTMIENYGMKYGVLTDPTGALRKDPRISALMGAELIKENMNILRPVLKREPTDTDLYLAHFFGPGAARRFLTTGQNELAATHFPKEAQANPSIFYNKDGSPKTIQEVYNLMDGKVAAHRKKRKKRKKRK
B3: EL188: Pseudomonas aeruginosa bacteriophage endolysin EL188 (phage EL) (protein)
chain: MNFRTKNGYRDLQALVKELGLYTGQIDGVWGKGTSSSTETLLRGYAEVVGKNTGGIGLPTTSDASGYNVITALQRNLAFLGLYSLTVDGIWGNGTLSGLDKAFEVYKERYRTPTYDIAWSGKVSPAFTAKVKDWCGVHVPNHRAPHWLMACMAFETGQTFSPSIKNAAGSEAYGLIQFMSPAANDLNVPLSVIRSMDQLTQLDLVFKYFEMWMKRGKRYTQLEDFYLTIFHPASVGKKADEVLFLQGSKAYLQNKGFDVDKDGKITLGEISSTLYTTYYKGLLPENRHVISY
modifications: Pseudomonas aeruginosa phage EL
B4: KZ144: Pseudomonas aeruginosa bacteriophage endolysin KZ144 (phage phiKZ) (protein)
chain: KVLRKGDRGDEVCQLQTLLNLCGYDVGKPDGIFGNNTFNQVVKFQKDNCLDSDGIVGKNTWAELFSKYSPPIPYKTIPMPTANKSRAAATPVMNAVENATGVRSQLLLTFASIESAFDYEIKAKTSSATGWFQFLTGTWKTMIENYGMKYGVLTDPTGALRKDPRISALMGAELIKENMNILRPVLKREPTDTDLYLAHFFGPGAARRFLTTGQNELAATHFPKEAQANPSIFYNKDGSPKTIQEVYNLMDGKVAAHRK
modifications: Pseudomonas aeruginosa phage KZ
B5: Cecropin A (A. aegyptii)-LysK: LysK fusion variant with one peptide stretch, Cecropin A (A. aegyptii) (protein)
chain: MGGLKKLGKKLEGAGKRVFNAAEKALPVVAGAKALRKAKTQAEINKRLDAYAKGTVDSPYRVKKATSYDPSFGVMEAGAIDADGYYHAQCQDLITDYVLWLTDNKVRTWGNAKDQIKQSYGTGFKIHENKPSTVPKKGWIAVFTSGSYEQWGHIGIVYDGGNTSTFTILEQNWNGYANKKPTKRVDNYYGLTHFIEIPVKAGTTVKKETAKKSASKTPAPKKKATLKVSKNHINYTMDKRGKKPEGMVIHNDAGRSSGQQYENSLANAGYARYANGIAHYYGSEGYVWEAIDAKNQIAWHTGDGTGANSGNFRFAGIEVCQSMSASDAQFLKNEQAVFQFTAEKFKEWGLTPNRKTVRLHMEFVPTACPHRSMVLHTGFNPVTQGRPSQAIMNKLKDYFIKQIKNYMDKGTSSSTVVKDGKTSSASTPATRPVTGSWKKNQYGTWYKPENATFVNGNQPIVTRIGSPFLNAPVGGNLPAGATIVYDEVCIQAGHIWIGYNAYNGNRVYCPVRTCQGVPPNQIPGVAWGVFK
B6: PK2-LysK: LysK fusion variant with one peptide stretch, PK2 (protein)
chain: MKRKKRKKRKKRKKRKKRKAKTQAEINKRLDAYAKGTVDSPYRVKKATSYDPSFGVMEAGAIDADGYYHAQCQDLITDYVLWLTDNKVRTWGNAKDQIKQSYGTGFKIHENKPSTVPKKGWIAVFTSGSYEQWGHIGIVYDGGNTSTFTILEQNWNGYANKKPTKRVDNYYGLTHFIEIPVKAGTTVKKETAKKSASKTPAPKKKATLKVSKNHINYTMDKRGKKPEGMVIHNDAGRSSGQQYENSLANAGYARYANGIAHYYGSEGYVWEAIDAKNQIAWHTGDGTGANSGNFRFAGIEVCQSMSASDAQFLKNEQAVFQFTAEKFKEWGLTPNRKTVRLHMEFVPTACPHRSMVLHTGFNPVTQGRPSQAIMNKLKDYFIKQIKNYMDKGTSSSTVVKDGKTSSASTPATRPVTGSWKKNQYGTWYKPENATFVNGNQPIVTRIGSPFLNAPVGGNLPAGATIVYDEVCIQAGHIWIGYNAYNGNRVYCPVRTCQGVPPNQIPGVAWGVFK
B7: PK2-Cecropin A (A. aegyptii)-LysK: PK2, then Cecropin A (A. aegyptii), N-terminally fused to LysK (protein)
chain: MKRKKRKKRKKRKKRKKRKGGLKKLGKKLEGAGKRVFNAAEKALPVVAGAKALRKAKTQAEINKRLDAYAKGTVDSPYRVKKATSYDPSFGVMEAGAIDADGYYHAQCQDLITDYVLWLTDNKVRTWGNAKDQIKQSYGTGFKIHENKPSTVPKKGWIAVFTSGSYEQWGHIGIVYDGGNTSTFTILEQNWNGYANKKPTKRVDNYYGLTHFIEIPVKAGTTVKKETAKKSASKTPAPKKKATLKVSKNHINYTMDKRGKKPEGMVIHNDAGRSSGQQYENSLANAGYARYANGIAHYYGSEGYVWEAIDAKNQIAWHTGDGTGANSGNFRFAGIEVCQSMSASDAQFLKNEQAVFQFTAEKFKEWGLTPNRKTVRLHMEFVPTACPHRSMVLHTGFNPVTQGRPSQAIMNKLKDYFIKQIKNYMDKGTSSSTVVKDGKTSSASTPATRPVTGSWKKNQYGTWYKPENATFVNGNQPIVTRIGSPFLNAPVGGNLPAGATIVYDEVCIQAGHIWIGYNAYNGNRVYCPVRTCQGVPPNQIPGVAWGVFK
B8: LysK: endolysin LysK (protein)
chain: MAKTQAEINKRLDAYAKGTVDSPYRVKKATSYDPSFGVMEAGAIDADGYYHAQCQDLITDYVLWLTDNKVRTWGNAKDQIKQSYGTGFKIHENKPSTVPKKGWIAVFTSGSYEQWGHIGIVYDGGNTSTFTILEQNWNGYANKKPTKRVDNYYGLTHFIEIPVKAGTTVKKETAKKSASKTPAPKKKATLKVSKNHINYTMDKRGKKPEGMVIHNDAGRSSGQQYENSLANAGYARYANGIAHYYGSEGYVWEAIDAKNQIAWHTGDGTGANSGNFRFAGIEVCQSMSASDAQFLKNEQAVFQFTAEKFKEWGLTPNRKTVRLHMEFVPTACPHRSMVLHTGFNPVTQGRPSQAIMNKLKDYFIKQIKNYMDKGTSSSTVVKDGKTSSASTPATRPVTGSWKKNQYGTWYKPENATFVNGNQPIVTRIGSPFLNAPVGGNLPAGATIVYDEVCIQAGHIWIGYNAYNGNRVYCPVRTCQGVPPNQIPGVAWGVFK
modifications: Staphylococcus aureus Phage K
B9: Cpl1-Pseudin1: Cpl1 fusion variant with one peptide stretch, Pseudin1 (protein)
chain: MVKKNDLFVDVSSHNGYDITGILEQMGTTNTIIKISESTTYLNPCLSAQVEQSNPIGFYHFARFGGDVAEAEREAQFFLDNVPMQVKYLVLDYEDDPSGDAQANTNACLRFMQMIADAGYKPIYYSYKPFTHDNVDYQQILAQFPNSLWIAGYGLNDGTANFEYFPSMDGIRWWQYSSNPFDKNIVLLDDEEDDKPKTAGTWKQDSKGWWFRRNNGSFPYNKWEKIGGVWYYFDSKGYCLTSEWLKDNEKWYYLKDNGAMATGWVLVGSEWYYMDDSGAMVTGWVKYKNNWYYMTNERGNMVSNEFIKSGKGWYFMNTNGELADNPSFTKEPDGLITVAGLNTLKKVFQGLHEAIKLINNHVQ
B10: Cpl1-Indolicidin: Cpl1 fusion variant with one peptide stretch, Indolicidin (protein)
chain: MVKKNDLFVDVSSHNGYDITGILEQMGTTNTIIKISESTTYLNPCLSAQVEQSNPIGFYHFARFGGDVAEAEREAQFFLDNVPMQVKYLVLDYEDDPSGDAQANTNACLRFMQMIADAGYKPIYYSYKPFTHDNVDYQQILAQFPNSLWIAGYGLNDGTANFEYFPSMDGIRWWQYSSNPFDKNIVLLDDEEDDKPKTAGTWKQDSKGWWFRRNNGSFPYNKWEKIGGVWYYFDSKGYCLTSEWLKDNEKWYYLKDNGAMATGWVLVGSEWYYMDDSGAMVTGWVKYKNNWYYMTNERGNMVSNEFIKSGKGWYFMNTNGELADNPSFTKEPDGLITVAILPWKWPWWPWRR
B11: Cpl1: endolysin Cpl-1 (protein)
chain: MVKKNDLFVDVSSHNGYDITGILEQMGTTNTIIKISESTTYLNPCLSAQVEQSNPIGFYHFARFGGDVAEAEREAQFFLDNVPMQVKYLVLDYEDDPSGDAQANTNACLRFMQMIADAGYKPIYYSYKPFTHDNVDYQQILAQFPNSLWIAGYGLNDGTANFEYFPSMDGIRWWQYSSNPFDKNIVLLDDEEDDKPKTAGTWKQDSKGWWFRRNNGSFPYNKWEKIGGVWYYFDSKGYCLTSEWLKDNEKWYYLKDNGAMATGWVLVGSEWYYMDDSGAMVTGWVKYKNNWYYMTNERGNMVSNEFIKSGKGWYFMNTNGELADNPSFTKEPDGLITVA
modifications: Streptococcus pneumoniae Phage Cpl-1

For one assay, the system named is Pseudomonas bacteria. In words: In vitro antibacterial activity of KZ144 and EL188 fusion variants. The class given is cell-based. Particulars: with EDTA 0.5 mM; 10^6 cells/ml; 30 minutes at RT. As for the experimental part: Exponential growing Gram-negative bacterial cells (OD600 nm=0.6) were 100-fold diluted to a final density of about 10^6 cells/ml in 5 mM HEPES pH 7.4 and incubated for 30 minutes at room temperature without shaking with the different modified OBPgpLYS variants (in Elution Buffer in an end concentration of 1500 nM). After incubation cell suspensions and as a control untreated bacterial cells without any added modified OBPgpLYS variant were diluted three times (respectively 10^5-10^4-10^3 cells/ml) in 1× concentrated PBS buffer and 100 μl of each dilution was plated out on LB-medium. […] All samples were replicated in threefold. Averages +/− standard deviations are represented.
The purification of the fusion proteins and the antimicrobial activity assay was performed as described in Example 1.
For B1, the “Average log reduction, Pseudomonas” value was “+ (+: 1 log)”.
On the same count and under the same terms, next, B2: “+ (+: 1 log)”.
For B3, the “Average log reduction, Pseudomonas” value is listed as “+/− (+/−: <1 log)”.
On the same count and under the same terms, next, B4: “+/− (+/−: <1 log)”.

The next assay has as its system Staphylococcus bacteria. In words: In vitro antibacterial activity of Lysostaphin and LysK fusion variants. Particulars: LysK variants; with EDTA 0.5 mM; 10^6 cells/ml; 30 minutes at RT. It counts as cell-based.
For the molecule B5, the “Average log reduction, Staphylococcus” value is given as “++ (++: 2-3 log)”.
Still for that read-out and setting: for B6 the value was “++ (++: 2-3 log)”; for B7, “+++ (+++: 4 or more logs)”.
Take B8: the “Average log reduction, Staphylococcus” value is listed as “+ (+: 1 log)”.

The test system of another assay is Streptococcus bacteria. In words: In vitro antibacterial activity of Cpl1 fusion variants. It counts as cell-based. The note with it: with EDTA 0.5 mM; 10^6 cells/ml; 30 minutes at RT.
As to B9, the “Average log reduction, Streptococcus” value is recorded as “++ (++: 2-3 log)”.
For B10, the “Average log reduction, Streptococcus” value is recorded as “++ (++: 2-3 log)”.
Still for that read-out and setting: for B11 the value was “+ (+: 1 log)”.

(Values after patent publication US20130344055A1, “ANTIMICROBIAL AGENTS” (priority 2010, published 2013).)
